This passage reports stoichiometry N results from article PMC10849882.

For test [1], the target named is IMPDH1(595)-S477D (human). In words: cryo-EM structure.
Test [2] addresses IMPDH1(595)-S477D (human). In words: negative stain EM.

What is called stoichiometry N is the number of molecules, sites or subunits per partner or assembly. Regarding IMPDH1(595)-S477D (enzyme), the stoichiometry N in test [1] and in test [2] was 8 each time.
